What all share (experiment): intrinsic tryptophan fluorescence quenching
Data set [1] concerns the target T1, His-ADAAD (Active DNA-dependent ATPase A Domain) (UniProt Q9TTA5).
T1 sequence (Q9TTA5 whole entry, looked up): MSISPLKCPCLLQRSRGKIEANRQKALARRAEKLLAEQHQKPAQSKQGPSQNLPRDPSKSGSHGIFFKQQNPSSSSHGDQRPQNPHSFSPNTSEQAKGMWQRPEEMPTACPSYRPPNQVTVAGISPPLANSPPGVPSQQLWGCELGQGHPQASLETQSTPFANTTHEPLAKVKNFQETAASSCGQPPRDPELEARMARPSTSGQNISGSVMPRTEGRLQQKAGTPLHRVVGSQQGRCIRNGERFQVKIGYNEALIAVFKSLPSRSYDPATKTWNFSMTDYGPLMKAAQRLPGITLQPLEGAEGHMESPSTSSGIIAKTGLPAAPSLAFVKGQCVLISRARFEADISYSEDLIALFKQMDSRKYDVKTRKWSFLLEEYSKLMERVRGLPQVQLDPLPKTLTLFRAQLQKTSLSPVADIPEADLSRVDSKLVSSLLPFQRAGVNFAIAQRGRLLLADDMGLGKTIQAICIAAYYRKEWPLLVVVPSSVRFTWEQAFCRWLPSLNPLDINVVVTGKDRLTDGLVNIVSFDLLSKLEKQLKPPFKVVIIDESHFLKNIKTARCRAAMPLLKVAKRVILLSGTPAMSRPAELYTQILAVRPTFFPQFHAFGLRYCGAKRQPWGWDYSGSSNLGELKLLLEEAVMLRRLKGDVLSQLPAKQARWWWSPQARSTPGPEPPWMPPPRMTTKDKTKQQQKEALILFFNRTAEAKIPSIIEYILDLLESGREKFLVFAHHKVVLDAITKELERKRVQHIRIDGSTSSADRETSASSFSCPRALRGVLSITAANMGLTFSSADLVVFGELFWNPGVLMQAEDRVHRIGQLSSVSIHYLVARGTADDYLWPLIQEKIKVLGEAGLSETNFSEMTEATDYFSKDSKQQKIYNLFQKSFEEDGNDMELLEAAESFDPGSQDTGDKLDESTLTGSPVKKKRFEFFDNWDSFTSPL
The following applies: Fluorescence at 25 C (Cary-Varian spectrofluorimeter), buffer, salt and pH not given (as in ref 13).

The target of a further data set is T2, MAD28 (UniProt Q9TTA5).
T2 sequence (Q9TTA5 whole entry, looked up): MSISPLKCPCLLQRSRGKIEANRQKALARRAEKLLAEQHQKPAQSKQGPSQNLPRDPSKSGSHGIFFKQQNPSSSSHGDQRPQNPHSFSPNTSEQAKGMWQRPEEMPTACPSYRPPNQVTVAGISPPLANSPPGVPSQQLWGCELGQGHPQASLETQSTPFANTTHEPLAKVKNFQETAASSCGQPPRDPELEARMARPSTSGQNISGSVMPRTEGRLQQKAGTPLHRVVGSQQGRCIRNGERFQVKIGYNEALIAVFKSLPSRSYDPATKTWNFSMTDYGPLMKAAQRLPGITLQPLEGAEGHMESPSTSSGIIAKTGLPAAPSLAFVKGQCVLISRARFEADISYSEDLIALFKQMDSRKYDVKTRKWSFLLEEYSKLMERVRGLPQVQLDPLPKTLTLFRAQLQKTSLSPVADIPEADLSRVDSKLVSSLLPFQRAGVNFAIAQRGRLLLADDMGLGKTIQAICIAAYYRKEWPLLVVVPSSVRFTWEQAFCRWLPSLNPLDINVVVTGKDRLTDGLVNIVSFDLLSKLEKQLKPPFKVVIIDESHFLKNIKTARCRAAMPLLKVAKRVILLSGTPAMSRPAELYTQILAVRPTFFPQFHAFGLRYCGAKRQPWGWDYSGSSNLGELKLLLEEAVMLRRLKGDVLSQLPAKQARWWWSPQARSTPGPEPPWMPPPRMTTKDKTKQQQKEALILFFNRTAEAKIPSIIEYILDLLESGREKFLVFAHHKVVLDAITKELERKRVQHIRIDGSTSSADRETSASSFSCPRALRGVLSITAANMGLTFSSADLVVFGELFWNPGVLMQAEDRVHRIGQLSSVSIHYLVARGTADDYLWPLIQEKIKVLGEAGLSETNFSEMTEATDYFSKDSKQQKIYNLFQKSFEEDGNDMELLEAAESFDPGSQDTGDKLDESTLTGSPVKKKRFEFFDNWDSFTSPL
The following applies: Fluorescence at 25 C (Cary-Varian spectrofluorimeter); buffer, salt and pH not given (as in ref 13).

The target in a further data set is T3, MAD33 (UniProt Q9TTA5).
T3 sequence (Q9TTA5 whole entry, looked up): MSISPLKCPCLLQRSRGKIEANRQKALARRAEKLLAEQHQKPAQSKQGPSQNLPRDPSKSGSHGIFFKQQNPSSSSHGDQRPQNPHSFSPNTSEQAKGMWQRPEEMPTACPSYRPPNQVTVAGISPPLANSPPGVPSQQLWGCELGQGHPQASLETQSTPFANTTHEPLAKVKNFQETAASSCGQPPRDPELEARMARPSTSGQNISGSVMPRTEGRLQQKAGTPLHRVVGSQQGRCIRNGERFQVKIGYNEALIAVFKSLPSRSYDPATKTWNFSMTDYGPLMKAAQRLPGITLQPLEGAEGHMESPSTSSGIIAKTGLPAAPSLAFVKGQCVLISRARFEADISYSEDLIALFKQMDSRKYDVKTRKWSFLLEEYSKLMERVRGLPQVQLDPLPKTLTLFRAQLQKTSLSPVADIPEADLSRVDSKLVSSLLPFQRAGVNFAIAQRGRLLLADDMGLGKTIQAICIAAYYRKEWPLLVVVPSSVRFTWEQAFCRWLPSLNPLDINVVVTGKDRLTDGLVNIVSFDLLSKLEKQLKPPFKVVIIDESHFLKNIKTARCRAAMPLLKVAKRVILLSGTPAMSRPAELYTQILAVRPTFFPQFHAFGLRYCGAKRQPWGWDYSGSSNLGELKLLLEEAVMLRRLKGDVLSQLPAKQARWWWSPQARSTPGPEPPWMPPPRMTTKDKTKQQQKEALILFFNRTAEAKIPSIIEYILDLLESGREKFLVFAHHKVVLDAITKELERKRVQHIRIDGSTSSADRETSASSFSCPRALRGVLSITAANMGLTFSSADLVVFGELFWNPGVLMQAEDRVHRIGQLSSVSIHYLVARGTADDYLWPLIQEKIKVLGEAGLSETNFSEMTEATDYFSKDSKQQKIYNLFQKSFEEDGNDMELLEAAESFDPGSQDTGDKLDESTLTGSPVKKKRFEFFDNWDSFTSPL
The conditions noted are these: Fluorescence at 25 C (Cary-Varian spectrofluorimeter); buffer, salt and pH not given (as in ref 13).

The next data set addresses T4, MAD47 (UniProt Q9TTA5).
T4 sequence (Q9TTA5 whole entry, looked up): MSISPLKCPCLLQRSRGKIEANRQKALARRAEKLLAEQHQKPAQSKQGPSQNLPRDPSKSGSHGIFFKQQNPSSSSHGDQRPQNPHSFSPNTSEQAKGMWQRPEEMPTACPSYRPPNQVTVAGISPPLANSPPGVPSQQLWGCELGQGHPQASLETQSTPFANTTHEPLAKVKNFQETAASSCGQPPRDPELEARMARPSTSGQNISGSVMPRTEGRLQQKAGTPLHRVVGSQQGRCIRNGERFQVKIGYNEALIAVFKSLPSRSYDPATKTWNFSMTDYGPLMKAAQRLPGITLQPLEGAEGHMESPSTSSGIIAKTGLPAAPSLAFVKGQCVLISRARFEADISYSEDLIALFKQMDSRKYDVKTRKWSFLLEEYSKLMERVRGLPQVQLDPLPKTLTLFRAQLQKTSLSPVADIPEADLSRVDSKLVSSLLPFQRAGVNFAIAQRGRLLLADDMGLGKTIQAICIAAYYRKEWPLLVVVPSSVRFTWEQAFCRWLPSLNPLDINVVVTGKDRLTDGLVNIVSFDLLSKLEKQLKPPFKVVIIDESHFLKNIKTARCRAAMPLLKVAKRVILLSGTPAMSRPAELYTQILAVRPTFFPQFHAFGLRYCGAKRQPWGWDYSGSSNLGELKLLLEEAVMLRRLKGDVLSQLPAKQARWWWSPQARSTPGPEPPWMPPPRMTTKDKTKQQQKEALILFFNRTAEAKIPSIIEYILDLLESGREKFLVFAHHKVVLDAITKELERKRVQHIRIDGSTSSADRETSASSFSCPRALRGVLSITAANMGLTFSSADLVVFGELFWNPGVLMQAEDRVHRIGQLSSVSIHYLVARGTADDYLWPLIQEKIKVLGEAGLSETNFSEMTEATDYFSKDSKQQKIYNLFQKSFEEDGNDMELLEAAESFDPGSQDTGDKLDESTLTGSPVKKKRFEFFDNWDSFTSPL
The following applies: Fluorescence at 25 C (Cary-Varian spectrofluorimeter); buffer, salt and pH not given (as in ref 13).

For the next data set, the target named is T5, MAD53 (UniProt Q9TTA5).
T5 sequence (Q9TTA5 whole entry, looked up): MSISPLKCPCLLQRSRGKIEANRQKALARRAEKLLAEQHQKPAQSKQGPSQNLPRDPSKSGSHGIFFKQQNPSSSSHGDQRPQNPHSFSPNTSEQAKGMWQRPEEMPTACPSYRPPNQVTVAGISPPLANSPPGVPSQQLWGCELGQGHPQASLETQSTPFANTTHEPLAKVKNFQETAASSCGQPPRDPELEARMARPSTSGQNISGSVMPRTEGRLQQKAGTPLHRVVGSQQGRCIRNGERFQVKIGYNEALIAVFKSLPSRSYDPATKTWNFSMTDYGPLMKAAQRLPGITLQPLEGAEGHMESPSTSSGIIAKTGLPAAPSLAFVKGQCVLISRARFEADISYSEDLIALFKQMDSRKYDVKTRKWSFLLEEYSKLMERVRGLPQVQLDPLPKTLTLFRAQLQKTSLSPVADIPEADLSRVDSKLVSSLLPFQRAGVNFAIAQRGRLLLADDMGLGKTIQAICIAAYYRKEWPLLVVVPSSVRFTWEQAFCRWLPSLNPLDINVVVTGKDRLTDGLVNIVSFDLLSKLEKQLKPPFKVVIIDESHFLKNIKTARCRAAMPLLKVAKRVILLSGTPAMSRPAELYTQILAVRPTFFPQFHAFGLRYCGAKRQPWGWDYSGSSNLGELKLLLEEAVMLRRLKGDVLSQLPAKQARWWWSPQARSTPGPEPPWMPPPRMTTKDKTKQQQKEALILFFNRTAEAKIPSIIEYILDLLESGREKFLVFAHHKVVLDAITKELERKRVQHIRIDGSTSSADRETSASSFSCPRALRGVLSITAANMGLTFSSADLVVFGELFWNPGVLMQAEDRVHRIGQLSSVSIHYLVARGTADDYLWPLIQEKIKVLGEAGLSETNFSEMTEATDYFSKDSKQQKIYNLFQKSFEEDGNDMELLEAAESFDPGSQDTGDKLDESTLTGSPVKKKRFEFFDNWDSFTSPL
The conditions noted are these: Fluorescence at 25 C (Cary-Varian spectrofluorimeter); buffer, salt and pH not given (as in ref 13).

In another data set the target is T6, MAD8 (UniProt Q9TTA5).
T6 sequence (Q9TTA5 whole entry, looked up): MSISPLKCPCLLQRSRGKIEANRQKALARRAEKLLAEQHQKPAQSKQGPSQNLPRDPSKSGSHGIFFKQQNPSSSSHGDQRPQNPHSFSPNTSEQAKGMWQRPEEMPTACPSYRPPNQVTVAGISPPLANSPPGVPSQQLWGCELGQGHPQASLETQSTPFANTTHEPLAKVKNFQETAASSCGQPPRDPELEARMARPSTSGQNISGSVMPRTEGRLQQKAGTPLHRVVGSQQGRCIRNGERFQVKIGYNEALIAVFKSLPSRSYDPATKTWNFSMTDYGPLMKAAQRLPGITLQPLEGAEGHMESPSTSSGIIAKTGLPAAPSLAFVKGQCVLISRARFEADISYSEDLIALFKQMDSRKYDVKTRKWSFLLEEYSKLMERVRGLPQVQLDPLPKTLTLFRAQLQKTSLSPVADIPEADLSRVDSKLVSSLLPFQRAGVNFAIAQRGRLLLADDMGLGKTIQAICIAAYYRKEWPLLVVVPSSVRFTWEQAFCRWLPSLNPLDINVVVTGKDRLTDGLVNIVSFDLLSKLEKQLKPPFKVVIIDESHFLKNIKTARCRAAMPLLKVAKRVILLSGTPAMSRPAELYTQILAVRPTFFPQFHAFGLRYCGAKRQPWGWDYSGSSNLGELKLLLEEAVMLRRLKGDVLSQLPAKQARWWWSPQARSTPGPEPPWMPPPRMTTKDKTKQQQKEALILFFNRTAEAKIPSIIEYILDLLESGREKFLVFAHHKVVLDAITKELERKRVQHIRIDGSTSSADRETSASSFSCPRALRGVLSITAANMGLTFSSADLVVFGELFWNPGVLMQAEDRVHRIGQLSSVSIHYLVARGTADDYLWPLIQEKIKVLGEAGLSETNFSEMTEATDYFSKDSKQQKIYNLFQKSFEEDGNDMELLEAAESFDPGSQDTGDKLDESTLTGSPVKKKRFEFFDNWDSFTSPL
The conditions noted are these: Fluorescence at 25 C (Cary-Varian spectrofluorimeter); buffer, salt and pH not given (as in ref 13).

Usually Kd stands for the concentration at which binding is half-saturated. Consider “GCGCAATTGCGCTCGACGATTTTTTAGCGCAATTGCGC [slDNA (stem-loop DNA)]”, for which the equilibrium dissociation constant (Kd) turned out to be 0.46 nM in data set [1] (2 uM ADAADiK); 0.63 nM in data set [1] (2 uM ADAADiN (saturating inhibitor)); 22.1 nM in the data set with MAD28; 41.5 nM in the data set with MAD33; 6.5 nM with MAD47; 8.2 nM in the data set with MAD53. Also, in the data set with MAD8, the Kd is 8.7 nM.

For the origin of these results see paper PMC3509132, “Global Epigenetic Changes Induced by SWI2/SNF2 Inhibitors Characterize Neomycin-Resistant Mammalian Cells” (PLoS ONE, 2012).
